From paper PMC11239853, “Molecular and structural basis of the chromatin remodeling activity by Arabidopsis DDM1” (Nature Communications, 2024)

Key:
[1] = molecular target: T1, Arabidopsis thaliana DECREASE IN DNA …ON 1 (DDM1), full length (Arabidopsis thaliana, UniProt Q9XFH4 1-764); assay: cross-linking; nucleosomes (0.2 µM) with AtDDM1 (0.4 µM), 60 mM NaCl, 1 mM MgCl2, 1 mM ADP, pH 7.5, 25 °C; 1.6 mM DSS-H12/D12 (lysine-lysine), LC-MS/MS, xQuest/xProphet; conditions: both partners purified
T1 construct: DDM1, Snf2-type chromatin remodeling factor, Arabidopsis thaliana, full length; His6-SUMO removed with HRV 3C protease; also called AtDDM1; source: E. coli BL21(DE3) Codon(+) RIL, purified (Ni-NTA, RESOURCE Q flow-through, RESOURCE S, Superdex 200); not shown: His6, N-terminal, cleaved; SUMO, N-terminal, cleaved

[2] = molecular target: T2, Arabidopsis thaliana histone H3.1 (Arabidopsis thaliana, UniProt P59226 1-136); assay: as above; conditions: both partners purified
T2 construct: His6 tag removed with thrombin (pET-15b); also called AtH3.1; source: E. coli BL21(DE3) Codon(+) RIL, purified (Ni-NTA and SP cation exchange, denaturing); in reconstituted nucleosomes; not shown: His6, N-terminal, cleaved

T1 sequence (Q9XFH4 whole entry): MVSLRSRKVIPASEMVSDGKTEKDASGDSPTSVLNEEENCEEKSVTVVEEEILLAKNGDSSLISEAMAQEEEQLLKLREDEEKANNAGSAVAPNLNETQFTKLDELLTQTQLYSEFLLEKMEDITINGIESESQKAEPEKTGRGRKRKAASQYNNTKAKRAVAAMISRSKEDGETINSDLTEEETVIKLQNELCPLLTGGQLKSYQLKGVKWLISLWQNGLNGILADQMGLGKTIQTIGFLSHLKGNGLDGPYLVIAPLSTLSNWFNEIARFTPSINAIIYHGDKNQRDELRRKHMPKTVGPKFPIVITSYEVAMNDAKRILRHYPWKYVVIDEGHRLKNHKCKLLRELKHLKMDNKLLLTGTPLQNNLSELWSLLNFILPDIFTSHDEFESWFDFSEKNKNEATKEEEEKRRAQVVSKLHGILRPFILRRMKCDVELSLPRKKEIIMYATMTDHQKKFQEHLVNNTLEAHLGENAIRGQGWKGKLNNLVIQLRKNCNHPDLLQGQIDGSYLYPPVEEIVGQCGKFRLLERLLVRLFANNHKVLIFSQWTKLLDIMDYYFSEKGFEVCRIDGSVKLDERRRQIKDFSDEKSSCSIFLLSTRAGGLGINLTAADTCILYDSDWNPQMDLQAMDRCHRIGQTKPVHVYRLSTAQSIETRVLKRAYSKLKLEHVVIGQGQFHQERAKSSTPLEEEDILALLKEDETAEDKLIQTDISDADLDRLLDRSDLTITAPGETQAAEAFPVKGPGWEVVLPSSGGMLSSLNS

- binding result [1]: binds
- binding result [2]: binds
B1: Arabidopsis thaliana histone H2A.W.6 (natural protein)
chain: MESTGKVKKAFGGRKPPGAPKTKSVSKSMKAGLQFPVGRITRFLKKGRYAQRLGGGAPVYMAAVLEYLAAEVLELAGNAARDNKKSRIIPRHLLLAIRNDEELGKLLSGVTIAHGGVLPNINSVLLPKKSATKPAEEKATKSPVKSPKKA
notes: His6 tag removed with thrombin (pET-15b); also called AtH2A.W; AtH2A.W.6; source: E. coli BL21(DE3) Codon(+) RIL, purified (Ni-NTA and SP cation exchange, denaturing); in reconstituted nucleosomes; not shown: His6, N-terminal, cleaved
